Key:
[1] = target: T1, recombinant human αvβ8 protein (PARS-17102) (human); assay: SPR, Biacore T200, Protein A capture, human αvβ8 analyte 0-100 nM, 37 C, 1:1 model (comparison with hC6D4, FIG. 9A)
T1 construct: also called hu.aVb8.17102; not shown: C-terminal acid/basic coils and any purification tags
T1 alpha: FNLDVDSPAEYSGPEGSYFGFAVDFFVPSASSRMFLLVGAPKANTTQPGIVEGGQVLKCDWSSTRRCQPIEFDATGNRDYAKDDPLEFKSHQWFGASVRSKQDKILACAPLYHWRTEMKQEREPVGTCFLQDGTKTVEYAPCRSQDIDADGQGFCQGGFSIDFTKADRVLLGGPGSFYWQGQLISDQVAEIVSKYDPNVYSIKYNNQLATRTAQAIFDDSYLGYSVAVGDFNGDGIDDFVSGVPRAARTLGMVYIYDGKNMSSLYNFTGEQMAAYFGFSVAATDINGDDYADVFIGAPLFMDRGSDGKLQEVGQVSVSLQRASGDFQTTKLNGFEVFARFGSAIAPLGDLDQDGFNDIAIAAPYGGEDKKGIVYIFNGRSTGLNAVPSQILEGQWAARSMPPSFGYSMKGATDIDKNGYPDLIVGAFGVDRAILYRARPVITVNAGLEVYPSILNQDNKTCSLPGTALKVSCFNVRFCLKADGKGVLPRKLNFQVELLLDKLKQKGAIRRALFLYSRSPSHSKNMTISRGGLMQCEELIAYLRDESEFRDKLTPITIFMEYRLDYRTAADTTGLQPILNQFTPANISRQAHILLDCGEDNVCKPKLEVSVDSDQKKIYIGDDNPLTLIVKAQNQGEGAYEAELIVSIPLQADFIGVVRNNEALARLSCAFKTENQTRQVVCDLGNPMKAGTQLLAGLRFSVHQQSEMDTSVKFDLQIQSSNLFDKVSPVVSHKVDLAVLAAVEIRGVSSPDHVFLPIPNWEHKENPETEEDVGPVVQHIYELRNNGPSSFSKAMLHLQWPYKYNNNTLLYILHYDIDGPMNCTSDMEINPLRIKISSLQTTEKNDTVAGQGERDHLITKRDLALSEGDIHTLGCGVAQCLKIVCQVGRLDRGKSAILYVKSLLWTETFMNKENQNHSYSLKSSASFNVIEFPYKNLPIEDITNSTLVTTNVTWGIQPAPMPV
T1 beta: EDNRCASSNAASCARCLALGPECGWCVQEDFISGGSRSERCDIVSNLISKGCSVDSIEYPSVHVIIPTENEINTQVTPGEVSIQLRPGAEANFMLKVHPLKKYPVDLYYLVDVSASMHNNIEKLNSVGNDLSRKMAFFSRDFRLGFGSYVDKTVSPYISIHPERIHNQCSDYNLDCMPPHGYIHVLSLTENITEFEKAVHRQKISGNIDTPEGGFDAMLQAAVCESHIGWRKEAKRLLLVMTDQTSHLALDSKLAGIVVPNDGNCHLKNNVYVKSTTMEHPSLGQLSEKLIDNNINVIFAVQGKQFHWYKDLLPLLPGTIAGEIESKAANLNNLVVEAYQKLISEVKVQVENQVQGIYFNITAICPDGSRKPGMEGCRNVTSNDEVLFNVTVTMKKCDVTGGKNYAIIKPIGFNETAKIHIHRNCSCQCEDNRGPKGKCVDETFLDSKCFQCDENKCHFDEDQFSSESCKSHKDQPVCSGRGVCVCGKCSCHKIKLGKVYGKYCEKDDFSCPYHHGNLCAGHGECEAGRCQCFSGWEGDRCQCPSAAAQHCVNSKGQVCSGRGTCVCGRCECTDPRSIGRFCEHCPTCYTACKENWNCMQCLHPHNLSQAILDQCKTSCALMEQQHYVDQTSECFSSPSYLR
Protocol: (§1) The antibodies were first captured either on a Biacore™ Protein A biosensor chip (Cytiva Life Sciences) or on an anti-murine Fc chip to achieve approximately 60 response units. Binding measurements were performed using a running buffer composed of 10 mM HEPES (pH 7.4), 150 mM NaCl, 0.5 mM CaCl₂), and 0.005% Surfactant P20 (Cytiva Life Sciences). For comparison between αvβ8-65 and hC6D4, a 5-fold dilution series of human αvβ8 (range, 0-100 nM in running buffer) was injected into the Biacore™ T200. For comparison between αvβ8-65 and hADWA11-2.4, a 5-fold dilution series of human αvβ8 (range, 0-100 nM in running buffer) was injected. For comparison of all three antibodies in the murine Fc format, a 5-fold dilution series of human αvβ8 (range, 0-50 nM in running buffer) was injected. All injections were performed over 180 seconds, with a dissociation time of 1200 seconds, at a flow rate of 100 μL/minute and a temperature of 37° C. Between sample injections, a regeneration reagent (10 mM glycine pH 1.5 for protein A chip; 10 mM glycine pH 1.7 for anti-murine Fc chip) was injected to regenerate the sensor chip (twice, over 30 seconds at 10 μL/minute for each injection). To determine the binding kinetics and affinity constants of the antibodies to human αvβ8 protein, the signal from the reference flow cell (FC1, with only protein A on the surface) was “double referenced” by subtracting the signal observed after injecting the sample over FC1, followed by subtracting the signal observed after injecting only running buffer. The kinetic constants were calculated using nonlinear regression fitting of the data, according to a 1:1 Langmuir binding model, using Biacore™ Evaluation Software (Cytiva Life Sciences).
(§2) The values of the kinetic constants kon, koff, and KD for the binding of αvβ8-65, hC6D4 and ADWA11-2.4 to the various species of αvβ8 proteins are summarized in Table 13. A 1:1 Langmuir binding model was used to determine the KD values. The sensograms observed for the bindings of the various αvβ8 proteins to the captured antibody are shown in FIG. 9A, FIG. 9B, and FIG. 10.

human αvβ3 = target: T2, human αvβ3 (human, UniProt P06756 31-992; P05106 27-718); assay: SPR binding assay, sample hu.aVb1,3,5,6
T2 construct: Counter-screen integrin; construct not described; also called hu.aVb3; αV03

human αvβ1 = target: T3, human αvβ1 (human, UniProt P06756 31-992; P05556 21-728); assay: SPR binding assay, sample hu.aVb1,3,5,6
T3 construct: Counter-screen integrin; construct not described; also called hu.aVb1; αVP1

human αvβ5 = target: T4, human αvβ5 (human, UniProt P06756 31-992; P18084 24-719); assay: SPR binding assay, sample hu.aVb1,3,5,6
T4 construct: Counter-screen integrin; construct not described; also called hu.aVb5; αV05

[2] = target: T1, recombinant human αvβ8 protein …; assay: SPR, Biacore T200, Protein A capture, human αvβ8 analyte 0-100 nM, 37 C, 1:1 model (comparison with hADWA11-2.4, FIG. 9B)
Protocol: as §1, §2

T3 sequence (P05556 21-728 limits assumed, one chain of several): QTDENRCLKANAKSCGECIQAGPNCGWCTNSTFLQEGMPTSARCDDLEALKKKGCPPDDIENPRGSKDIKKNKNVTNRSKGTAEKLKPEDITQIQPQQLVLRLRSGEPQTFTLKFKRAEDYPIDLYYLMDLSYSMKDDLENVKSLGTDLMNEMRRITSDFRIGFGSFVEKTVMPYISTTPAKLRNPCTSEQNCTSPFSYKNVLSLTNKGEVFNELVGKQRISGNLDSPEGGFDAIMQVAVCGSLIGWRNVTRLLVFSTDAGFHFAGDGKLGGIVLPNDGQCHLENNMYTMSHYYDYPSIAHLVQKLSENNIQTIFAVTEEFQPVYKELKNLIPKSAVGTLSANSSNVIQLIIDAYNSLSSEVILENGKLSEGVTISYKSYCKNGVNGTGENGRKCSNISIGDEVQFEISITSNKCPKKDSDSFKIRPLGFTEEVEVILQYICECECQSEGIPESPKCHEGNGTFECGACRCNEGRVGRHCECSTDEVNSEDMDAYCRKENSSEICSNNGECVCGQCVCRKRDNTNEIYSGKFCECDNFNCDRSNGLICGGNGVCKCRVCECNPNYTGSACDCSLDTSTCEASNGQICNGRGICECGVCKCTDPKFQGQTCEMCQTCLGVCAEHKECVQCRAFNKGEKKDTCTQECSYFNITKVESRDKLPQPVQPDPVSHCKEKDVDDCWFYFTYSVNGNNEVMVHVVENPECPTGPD
T2 sequence (P05106 27-718 limits assumed, chain 2 of 2, one chain of several): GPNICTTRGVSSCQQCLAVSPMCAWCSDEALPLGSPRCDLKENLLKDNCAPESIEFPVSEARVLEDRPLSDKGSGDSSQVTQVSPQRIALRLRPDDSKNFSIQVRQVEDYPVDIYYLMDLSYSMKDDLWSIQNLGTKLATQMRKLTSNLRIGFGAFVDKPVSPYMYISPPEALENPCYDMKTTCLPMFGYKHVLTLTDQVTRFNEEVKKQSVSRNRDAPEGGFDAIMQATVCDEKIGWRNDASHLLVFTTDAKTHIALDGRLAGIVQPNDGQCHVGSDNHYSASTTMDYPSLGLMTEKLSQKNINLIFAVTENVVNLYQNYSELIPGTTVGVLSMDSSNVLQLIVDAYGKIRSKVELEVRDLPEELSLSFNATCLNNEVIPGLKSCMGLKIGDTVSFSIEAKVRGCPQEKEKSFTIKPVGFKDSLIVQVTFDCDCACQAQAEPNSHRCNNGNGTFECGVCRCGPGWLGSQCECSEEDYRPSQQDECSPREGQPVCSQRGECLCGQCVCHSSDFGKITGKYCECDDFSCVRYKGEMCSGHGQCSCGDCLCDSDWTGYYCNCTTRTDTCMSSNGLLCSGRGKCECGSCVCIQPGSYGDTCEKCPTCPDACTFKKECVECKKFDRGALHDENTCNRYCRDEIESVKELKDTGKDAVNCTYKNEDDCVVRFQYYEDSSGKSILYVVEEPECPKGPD
T4 sequence (P18084 24-719 limits assumed, one chain of several): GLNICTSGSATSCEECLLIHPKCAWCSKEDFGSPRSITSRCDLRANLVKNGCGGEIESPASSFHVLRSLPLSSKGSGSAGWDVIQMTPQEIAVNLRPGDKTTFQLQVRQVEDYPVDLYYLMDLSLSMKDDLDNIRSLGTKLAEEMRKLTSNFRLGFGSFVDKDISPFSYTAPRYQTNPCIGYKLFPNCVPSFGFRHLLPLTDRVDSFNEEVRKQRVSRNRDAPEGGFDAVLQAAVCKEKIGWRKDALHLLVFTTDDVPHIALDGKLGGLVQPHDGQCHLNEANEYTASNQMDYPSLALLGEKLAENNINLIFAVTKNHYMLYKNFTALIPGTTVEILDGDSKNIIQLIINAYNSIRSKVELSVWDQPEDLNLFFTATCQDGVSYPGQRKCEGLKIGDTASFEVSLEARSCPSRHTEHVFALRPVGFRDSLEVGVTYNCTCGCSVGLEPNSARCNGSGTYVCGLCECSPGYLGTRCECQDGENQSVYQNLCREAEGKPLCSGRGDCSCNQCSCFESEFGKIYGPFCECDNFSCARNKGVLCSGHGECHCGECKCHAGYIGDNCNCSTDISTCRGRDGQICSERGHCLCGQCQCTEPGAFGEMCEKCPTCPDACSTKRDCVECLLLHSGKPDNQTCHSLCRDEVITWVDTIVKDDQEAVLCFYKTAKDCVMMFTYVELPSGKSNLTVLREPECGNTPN

Kd [1]: 1.01 nM
koff [1]: 0.000169 s⁻¹
kon [1]: 168000 M⁻¹ s⁻¹
binding result (human αvβ3): no binding
binding result (human αvβ1): no binding
binding result (human αvβ5): no binding
Kd [2]: 0.528 nM
koff [2]: 9.58e-05 s⁻¹
kon [2]: 181000 M⁻¹ s⁻¹
B1: Hu.aVb8-65.H15L2 (aVb8-65.H15L2.hIgG1.LALAPG) (antibody, V domains shown)
VH: EVQLLESGGGLVQPGGSLRLSCAASGIDLSNYAMIWVRQAPGKGLEWVGIISSSDRIWYASWVKGRFTISRDNSKNTLYLQMNSLRAEDTAVYYCSRSVSNSYFDGWNLWGQGTLVTVSS
VL: DIQMTQSPSSVSASVGDRVTITCQASENINSLLAWYQQKPGKAPKLLIYRASTLASGVPSRFSGSGSGTDFTLTISSLQPEDFATYYCQSNYGFTGSGAFFYGFGQGTKVEIKR
notes: Human IgG1 LALAPG; also called PARS-20475-65 (IH) aVb8-65.H15L2.hIgG1.LALAPG; humanized αvβ8-65
